Source: PMC9684555, “Structure- and computational-aided engineering of an oxidase to produce isoeugenol from a lignin-derived compound” (Nature Communications, 2022)

Target: the molecule itself
Assay: crystal structure; sitting-drop vapor diffusion at 20 °C; crystals soaked 1 h with 5 mM 4-n-propylguaiacol; 2.9 Å; eight subunits in the asymmetric unit

B1: S394V-EUGO5X mutant of eugenol oxidase (EUGO) from Rhodococcus jostii RHA1 (enzyme)
chain: MTRTLPPGVSDERFDAALQRFRDVVGDKWVLSTADELEAFRDPYPVGAAEANLPSAVVSPESTEQVQDIVRIANEYGIPLHPVSTGKNNGYGGAAPRLSGSVIVKTGERMNRILEVNEKYGYALLEPGVTYFDLYEYLQSHDSGLMLDCPDLGWGSVVGNTLDRGVGYTPYGDHFMWQTGLEVVLPQGEVMRTGMGALPGSDAWQLFPYGFGPFPDGMFTQSNLGIVTKMGIALMQRPPASQSFLITFDKEEDLEQIVDIMLPLRINMAPLQNVPVLRNIFMDAAAVSKRTEWFDGDGPMPAEAIERMKKDLDLGFWNFYGTLYGPPPLIEMYYGMIKEAFGKIPGARFFTHEERDDRGGHVLQDRHKINNGIPSLDELQLLDWVPNGGHIGFVPVSAPDGREAMKQFEMVRNRANEYNKDYMAQFIIGLREMYHVCLFIYDTADPEAREEILQMTKVLVREAAEAGYGEYRTHNALMDDVMATFNWGDGALLKFHEKIKDALDPNGIIAPGKSGIWPQRFRGQNL
modifications: covalently bound FAD cofactor
notes: eugenol oxidase (EUGO), Rhodococcus jostii RHA1, UniProt Q0SBK1; EUGO5X = S81H, A423M, H434Y, I445D, S518P, with S394V added; Tag-less protein after SUMO protease; crystals were soaked with 4-n-propylguaiacol; also called sixfold mutant S394V-EUGO5X; source: E. coli, from pBAD-His-Sumo-S394V-EUGO5X, purified (HisTrap, SUMO protease, reverse nickel, Superdex 200)
stoichiometry N: 2
